Measured values taken from patent publication US20030175703, “RNA aptamers and methods for identifying the same” (published 2003).
Like-named read-outs stand apart in the source and are kept apart here.

Key:
[1] = molecular target: thrombin (F2) (human, UniProt P00734;P00734 P00734:328-363,P00734:364-622); experiment: filter; ±0.7
[2] = molecular target: T1, coagulation factor IX (FIX) (UniProt P00740 P00740:47-461); experiment: ±0.7
[3] = molecular target: T2, coagulation factor IXa (FIXa) (UniProt P00740;P00740 P00740:47-191,P00740:227-461); experiment: filter; ±0.2; 500-700 pM in Table 1
[4] = molecular target: T1, coagulation factor IX (FIX); experiment: ±0.8; p287 gives about 6 to 10 nM; settings: stem-loop
[5] = molecular target: T2, coagulation factor IXa (FIXa); experiment: ±0.05; p287 gives about 1 to 3 nM; settings: stem-loop
[6] = molecular target: T2, coagulation factor IXa (FIXa); experiment: competition; cholesterol has modest effect on affinity
[7] = molecular target: T3, angiopoietin-2 (Ang2) (UniProt O15123 O15123:19-496)
[8] = molecular target: T3, angiopoietin-2 (Ang2); experiment: FIG. 27 gives <10 nM; about 1 nM in competition (FIG. 29)
[9] = molecular target: coagulation factor VIIa (FVIIa) (UniProt P08709;P08709 P08709:61-212,P08709:213-466); experiment: competition; physiologic conditions

B1: TOG 25 (TOGGLE-25) (ssRNA)
RNA: GGGAGAGAGGAAGAGGGAUGGGGAACAAAGCUGAAGUACUUACCCAAGAUCAUCCCGAACGACAUAACCCAGAGGUCGAUAGUACUGGAUCCCCCC
Q: How did the Kd [1] turn out when B1 was run?
A: 2.8 nM

B2: RNA 9.3 (ssRNA)
RNA: GGGAGAGAGGAAGAGGGAUGGGGACUAUACCGCGUAAUGCUGCCUCCCCAUUCCGGAACGCUCAUAACCCAGAGGUCGAUAGUACUGGAUCCCCCC
modifications: 2'-F pyrimidines
Q: What does the source list for B2?
A: Kd [2]: 3.96 nM; Kd [3]: 0.65 nM

B3: 9.3t (ssRNA)
RNA: AUGGGGACUAUACCGCGUAAUGCUGCCUCCCCAU
Q: For B3, which Kd [4] is on record?
A: 4.7 nM

Q: And the Kd [5]?
A: 0.58 nM

B4: 9.3t-C (ssRNA)
RNA: B3 RNA
modifications: 5' cholesterol
Q: Does B4 bind [6]?
A: binds

B5: Ang2 aptamer 9-5 (ssRNA)
RNA: GGGAGGACGAUGCGGCGAUCUUUUCGUCAACCGCACGUUGAACUCGGCUCGGCACCAGACGACUCGCUGAGGAUCCGAGA
modifications: 2'-F
Q: With B5 as the binder, how does the Kd [7] read?
A: ~5 nM

B6: ANG11-1 (ssRNA)
RNA: GGGAGGACGAUGCGGACUAGCCUCAUCAGCUCAUGUGCCCCUCCGCCUGGAUCACCAGACGACUCGCUGAGGAUCCGAGA
modifications: 2'-F
Q: How did the Kd [8] turn out when B6 was run?
A: ~5 nM

B7: 10.15 (ssRNA)
RNA: GGGAGAGAGGAAGAGGGAUGGGAAGCUCCAUCCAAGCGACGACACGCUCGUCCCGAAAAGAAUCAUAACCCAGAGGUCGAU
modifications: 2'-F pyrimidines
Q: How did the Kd [9] turn out when B7 was run?
A: ~6.33 nM
